By stoichiometry N is commonly meant the number of molecules, sites or subunits per partner or assembly.

The target in this assay is T1, PARK7, endogenous in SN4741 cells (mouse (endogenous in SN4741)), Q99LX0.
T1 chain: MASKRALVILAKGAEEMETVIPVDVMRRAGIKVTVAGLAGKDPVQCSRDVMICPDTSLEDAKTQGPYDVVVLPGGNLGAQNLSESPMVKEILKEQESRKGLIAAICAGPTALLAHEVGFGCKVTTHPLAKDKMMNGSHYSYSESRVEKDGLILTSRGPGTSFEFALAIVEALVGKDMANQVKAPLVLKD
Description: cross-linking. As to conditions: remark: other sources report otherwise.

B1: PARK7, endogenous in SN4741 cells, Q99LX0 1-189 (natural protein)
chain: MASKRALVILAKGAEEMETVIPVDVMRRAGIKVTVAGLAGKDPVQCSRDVMICPDTSLEDAKTQGPYDVVVLPGGNLGAQNLSESPMVKEILKEQESRKGLIAAICAGPTALLAHEVGFGCKVTTHPLAKDKMMNGSHYSYSESRVEKDGLILTSRGPGTSFEFALAIVEALVGKDMANQVKAPLVLKD
In turn, B1 returned a stoichiometry N of 2.

(Values after PMC4968227.)
